Assay results: the DeepSol protein solubility set

experiment: soluble on expression in E. coli; label from the status in PepcDB or PDB records

| Sequence | soluble on expression in E. coli |
| --- | --- |
| MPKSVKVIAVTPEEREAVMSIDFGGAYDFTSPGFNLFEVREKYSEPMDAAAGVVYNLLWNSGLPEKFGCREQTLLNFILQCRRRYRRVPYHNFYHVVDVCQTLHTYLYTGKASELLTELECYVLLVTALVHDLDHMGVNNSFYLKTDSPLGILSSASGNNSVLEVHHCSLAIEILSDPAADVFEGLSGQDVAYAYRALIDCVLATDMARHGDLSRVFDDMAKAGYDSNDQESRRLVMETLIKAGDVSNVTKPFETSRMWAMAVTEEFYRQGDMEKEKGVEVLPMFDRSKNNELARGQIGFIDFVAGKFFRDIVGNLFHGMQWCVDTVNSNRAKWQEILDGRRDSIRPSIV | soluble |
| MFYEKIQTPAYILEEDKLRKNCELLASVGEKSGAKVLLALKGFAFSGAMKIVGEYLKGCTCSGLWEAKFAKEYMDKEIHTYSPAFKEDEIGEIASLSHHIVFNSLAQFHKFQAKTQKNSLGLRCNVEFSLAPKELYNPCGRYSRLGIRAKDFENVDLSTIEGLHFHALCEESAGALEAVLKVFEEKFGKWIGQMKWVNFGGGHHITKKGYDVEKLIALCKNFSDKYGVQVYLEPGEAVGWQTGNLVASVVDIIENEKQIAILDTSSEAHMPDTIIMPYTSEVLNARILATRENEKISDLKESEFSYLLTGNTCLAGDVMGEYAFDKKLKIGDKIVFLDQIHYTIVKNTTFNGIRLPNLMLLNAKNELQMIREFSYKDYSLRN | not soluble |
| MAHHHHHHMLKSSIVLLRRGKPRPRAGMFPEKYRRVPTLLKPQQGGQQYFNEFLIRSANDALEAQQQGYGSAFRVGGSGAARILADGNATAADGIHDGEISSVHPRLPQADIDGVLQRSRAETIQAELKQLVAQDGFISQRGFNERLWYEQEHHRLRTHGDGVEASPSEVAATAAASSSTAEAVSATGEGRAVPERILGDDYFQSKFGYSLLKGRSPDASAVADNVKAYAQLDLWGEMPMYSRDFVFLYLVSRRRNTYAVAYDYDGKRLLPTYTAGNRGLKGGDRGFRGDGSTDNGHQVTSMYLNDLLPKIREARAASGRPLGRGEKIDLVVRVMGFYNGRQGAVRAVQDRSADFRVRYLEDVTPFPLNGPKMPRGVFR | not soluble |
| EEATSKGQNLNVEKINGEWFSILLASDKREKIEEHGSMRVFVEHIHVLENSLAFKFHTVIDGECSEIFLVADKTEKAGEYSVMYDGFNTFTILKTDYDNYIMFHLINEKDGKTFQLMELYGRKADLNSDIKEKFVKLCEEHGIIKENIIDLTKTNRCLKARE | soluble |
| GSESGLRYAYTLVVDGTANTARCFGTGHVDGEAFVGYSNNKTHGIGRWVNASHVEEENKEFVRQCKELQAELDKMQNNSAVIGVKTVQLDVGCTSKIEKHYAYDGNETEDDTATSASERARDCQKKLTEYRKLVLASAVSPQLEVERRSSGREGGMRLRCFARDYYPADLEIRWWKDDGGGGALPQTSKQHHDPLPSGQGLYQKHIDVYVDGGLEHVYSCRVKGIATGLELQIVRWKG | soluble |
| MSFFKKLAASAGIGAAKVDTILEKDAYFPGEEVQGTVHVKGGKIAQDIRYIDLQLSTRYVIVKDDEEHRKYATIHSFRVTGSFTIQPGEEHQFPFTFTLPLDTPITVGKVEVAVVTDLDIQGGIDKSDHDRIFVEAHPWIENVLEAIENLGFRLNEADCEQAPYFQRRFPFVQEFEFVPTSGYYRQMLDELELIFLLGEDGLEIIFEVDRRARGLRGWLEEMYNDGEQLVRVRFSQSELEDAEELEEVLEEILDQYVE | soluble |
| MRAVFRTDIGQIREHNEDSGGVFVNQSGQYLAVVADGMGGHRAGDVASSMAVAYLQERWEKESGLASPAEAEQWLKTQIASANEQLFRHALSHPECQGMGTTVVAAVCANSFATVAHIGDSRCYVLNKSGIQQLTDDHSLVNELVKSGQLSKEAAEHHPRKNVLLRALGTEPAVKIDVKTVALDEGDMLLLCSDGLSNKVPEADMIHILTGAGTLEEKAEALIQLANGRGGEDNISLAVIDVSAEREGG | not soluble |
